These results are taken from US20050182242A1, “Global analysis of protein activities using proteome chips” (priority 2001, published 2005).

What all share (settings): liposome binding signal on yeast proteome chip, Cy3-streptavidin detection
The subject of data set [1] is phosphatidylcholine (PC) liposomes. The data set is described as follows: Yeast proteome chip probed with PC liposomes. The gist of the method: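 Signal comes from Cy3- or Cy5-streptavidin recognising 1% (w/w) biotin-DHPE carried in every liposome. Liposomes were PC alone or PC containing 5% (w/w) of a single phosphoinositide, applied to arrayed GST-fusion yeast proteins for 1 h at RT.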

The test system of data set [2] is PI(3,4,5)P3 liposomes. The data set is described as follows: Yeast proteome chip probed with PI(3,4,5)P3 liposomes.
For data set [3], the system named is PI(3,4)P2 liposomes. The data set is described as follows: Yeast proteome chip probed with PI(3,4)P2 liposomes.
For data set [4], the system named is PI(3)P liposomes. The data set is described as follows: Yeast proteome chip probed with PI(3)P liposomes.
Data set [5] has as its system PI(4,5)P2 liposomes. The data set is described as follows: Yeast proteome chip probed with PI(4,5)P2 liposomes.
Data set [6] deals with PI(4)P liposomes. As to the kind of experiment: Yeast proteome chip probed with PI(4)P liposomes.

B1: AKL1: yeast GST-HisX6 fusion protein on proteome chip (protein, UniProt P38080 2-1108, looked up)
Serine/threonine-protein …: SITNGTSRSVSAMGHPAVERYTPGHIVCVGTHKVEVVNYLAEGGFAQIYVVKFLEYLNEFDNTASVPLKIGDVACLKRVLVQDENGLNEMRNEVEVMKKLKGAPNIVQYFDSNASRRRDGVQGFEVLLLMELCPNKSLLDYMNQRLSTKLTEAEIVKIMYDVALSISQMHYLPVSLIHRDIKIENVLVDAKNNFKLADFGSTSTCFPIVTTHQDIALLTQNIYVHTTPQYRSPEMIDLYRCLPINEKSDIWALGVFLYKLLFFTTPFEMTGQFAILHSKYEFPVNKYSSKLINLIIIMLAENPNLRPNIYQVLYHLCEILNVEVPIEDKYAEGAYNFSKYTQFQNKLQNVQLQMYQLQQKKIMQNNKLSDSEENLLNDMFLSSFEISSKLPMNASDGHAAVSRIPSQNVGQELEEEKESQSDQRKSTLSEDKSSRTTSNANSSGTANNPQEINTIQSPGIEDKSIFENKTPGELYYPSVSELDTYLDKELVKQSSDPTISEQSPRLNTQSLPQRQKSTSSYSSGGRSMKSTSYGAATIGSDEALANEKTAGINKMKQHKSNNPFPKMNVAYHSTNELSNDASNFFLEEQQQGQRYQQAQNQTGTQGNTFPDESQYQSRVEQQQQQQDQPKGPANYSQRNFYTGRDRSNKPMQLGGTIAGDSGNRRVNFQNISQNYATNSQSGYLPSQNSPAIPMVRPVISMNQQQAQQIQAQQLQAQQMQAKQQMQAKQQMQVQQQLQVQQQMQIQNANNNGTYVSDRTNHTTEDMRNAQGGEPPILAGNSANEPMHSSSKNEALLIELSPLKEDAGKQSFQDTNEPQTGGIEDAGGSGTIKGSNNNRNGVLNLSLNEMDLSRDDTGAAVSSFSSSSSSASIQQAKLSGRKGSSKRNNYSTDELGDSMVSSESIDIDLDDARRGKTAERRPLHNERGHKDQARSSDASKSNQFKSKDFSSVSTRQPRQSLDLNFQEVNLSSPTLTQEHRNKNDSPAPNSHHSYRVSPHASTAITENKRHSTGHELSTRSNGKHETHRTGSKQRHDLERYRHSKDKDSNSSITISTSTPSEMRKSFARARQSLDLERVRREAMASSASSSGGSNGKRRSFFSVFRSEK
modifications: GST-His6 tag
notes: yeast GST-HisX6 fusion protein on proteome chip
Turning to B1, the PC in data set [1] worked out at 207.20. The “PI(3, 4, 5)P3” value in data set [2] is given as 93.38. Moreover, the “PI(3, 4)P2” value in data set [3] was found to be 132.49. Besides, in data set [4], the “PI(3)P” value is listed as 19.50. For the same molecule, the “PI(4, 5)P2” value in data set [5] is listed as 57.48. In data set [6], the “PI(4)P” value came to 189.44.

B2: MET8: yeast GST-HisX6 fusion protein on proteome chip (protein)
chain: MVKSLQLAHQLKDKKILLIGGGEVGLTRLYKLIPTGCKLTLVSPDLHKSIIPKFGKFIQNEDQPDYREDAKRFINPNWDPTKNEIYEYIRSDFKDEYLDLEDENDAWYIIMTCIPDHPESARIYHLCKERFGKQQLVNVADKPDLCDFYFGANLEIGDRLQILISTNGLSPRFGALVRDEIRNLFTQMGDLALEDAVVKLGELRRGIRLLAPDDKDVKYRMDWARRCTDLFGIQHCHNIDVKRLLDLFKVMFQEQNCSLQFPPRERLLSEYCSS
modifications: left off: a dimerising Fc or GST
notes: as for B1
Regarding B2, the PC in data set [1] is recorded as 188.12. In addition, the “PI(3, 4, 5)P3” value in data set [2] came out at 25.42. For the same molecule, the “PI(3, 4)P2” value in data set [3] amounted to 95.44. Moreover, in data set [4], the “PI(3)P” value is on record as 117.00. For the same molecule, in data set [5], the “PI(4, 5)P2” value stood at 244.09. Also, the “PI(4)P” value in data set [6] is recorded as 175.94.

B3: ARP10: yeast GST-HisX6 fusion protein on proteome chip (protein, UniProt Q04549 1-284, looked up)
Actin-like protein ARP10: MSNTIVIVYLGANRIEIGRSADACPQEIIAWKTGSINEKNREELKKIFEHYFQICNILGNREVQVLILEDIFISVVEKRIICSILFKEFDCAHVSFVPRAIVHCLSCNTRNAIVIDIGTNYTTCVPIFDLRPLQQFIKYSKRGKRQVESRIPLPGSLYMPIFFDEEYNSKNCEVDETPVINLVKNIVESLPIDLRRPLRENIIIVNIEEAYETVIRNLFKLKMDTSKIQFPKNYWQAGSACAKILLHYKGSNIVGIERDEFYNNPHIAPDWFDYYFRTGVKRLQ
modifications: GST-HisX6 tag
notes: as for B1
On to B3, for which the PC in data set [1] came out at 119.74. In addition, in data set [2], the “PI(3, 4, 5)P3” value is 30.15. In addition, the “PI(3, 4)P2” value in data set [3] was 29.20. Besides, the “PI(3)P” value in data set [4] amounted to 51.00. The “PI(4, 5)P2” value in data set [5] turned out to be 32.01. In addition, the “PI(4)P” value in data set [6] is 98.64.

B4: KCC4: yeast GST-HisX6 fusion protein on proteome chip (protein, UniProt P25389 1-1037, looked up)
Probable …: MTVANTETHSAAKPSSTIGPWKLGETLGFGSTGKVQLAQHERTGHRTAVKVISKSIFNNNGNHSNDDSVLPYNIEREIVIMKLLSHPNVLSLYDVWETNNNLYLILEYAEKGELFNLLVDHGPLPEREAINCFRQIIIGISYCHALGIVHRDLKPENLLLDSFYNIKIADFGMAALQTDADLLETSCGSPHYAAPEIVSGLPYEGFASDVWSCGVILFALLTGRLPFDEENGNVRDLLLKVQKGQFEMPNDTEISRDAQDLIGKILVVDPRQRIKIRDILSHPLLKKYQTIKDSKSIKDLPRENTYLYPLADSNNHTSASIDDSILQNLVVLWHGRHADDIVSKLKENGTNKEKILYALLYRFKLDSVRGSNKKNRNKIKKTKKNKRSSTLSSSSSLLLNNRSIQSTPRRRTSKRHSREFSSSRKRSSFLLSSNPTDSSPIPLRSSKRITHINVASANTQATPSGVPNPHKRNSKKRSSKRLSYMPNTKRSSLTSKSLSNFTNLIDDDDWEYIEKDAKRTSSNFATLIDEIFEPEKFELAKREKAELQRKVQEAKRQSVNAQKINEDEFGSEVSDGMKELKKINDKVSSPLINYEFSQQELLQDIDTLLTNRYQLSSYTRPISRLDPGLTPVTETLPNNLKEKTALLQDTEKKIIETIRRSKFLGSLLNVRGGLSPGKSELAPIEESPIVSTTPLIYNDRMEPRRISDVEVPHFTRKSKHFTTANNRRSVLSLYAKDSIKDLNEFLIKEDPDLPPQGSTDNESRSEDPEIAESITDSRNIQYDEDDSKDGDNVNNDNILSDFPQGVGISQEYDMKDKNPNQSPISKSAEPTLVVKLPSLSSFQGKNASGLGLYQREPSKVTLPSLTSNNSSVGENIEDGAEKGTESEKIAASLSDDDLKEDNDKKDNDTVNAPTTVKKPPNSVLLKKFSKGKILELEIHAKIPEKRLYEGLHKLLEGWKQYGLKNLVFNITNMIITGKLVNDSILFLRSTLFEIMVLPNGDGRSLIKFNKKTGSTKTLTKLATEIQIILQKEGVLDK
modifications: GST-HisX6 tag
notes: as for B1
On to B4, for which, in data set [1], the PC came to 123.26. For the same molecule, the “PI(3, 4, 5)P3” value in data set [2] was 65.47. Further, the “PI(3, 4)P2” value in data set [3] is on record as 234.84. Also, the “PI(3)P” value in data set [4] is 33.50. In addition, the “PI(4, 5)P2” value in data set [5] was 67.06. For the same molecule, in data set [6], the “PI(4)P” value was determined as 84.92.

B5: ROT1: yeast GST-HisX6 fusion protein on proteome chip (protein, UniProt Q03691 25-256, looked up)
Protein ROT1: EDESNSIYGTWSSKSNQVFTGPGFYDPVDELLIEPSLPGLSYSFTEDGWYEEATYQVSGNPRNPTCPMASLIYQHGTYNISENGTLVLNPIEVDGRQLFSDPCNDDGVSTYSRYNQTETFKEYAVGIDPYHGIYTLQLYQYDGTPMQPLYLAYRPPMMLPTETLNPTSSATSTDDPSSNKKRSLRSLVRRSLENRHKTNAIKRQNTSFLTSNAIWYISAGMLGVGSLLFLAF
modifications: GST-His6 tag
notes: as for B1
Consider B5, for which the PC in data set [1] was found to be 121.50. In data set [2], the “PI(3, 4, 5)P3” value worked out at 99.11. Besides, the “PI(3, 4)P2” value in data set [3] is 137.98. The “PI(3)P” value in data set [4] turned out to be 33.25. Moreover, the “PI(4, 5)P2” value in data set [5] came out at 63.58. Further, the “PI(4)P” value in data set [6] stood at 52.04.
